Assay results: US20110152183A1 (Novo Nordisk, published 2011)
Where a chain is given by its changes, count along the chain named. One block for each binder: values may come before it. Bridge positions count the residues as written; N and C are the ends.

What was measured:
[1] = biological target: T1, Amylin 3(a) receptor (human calcitonin receptor (CTa) coexpressed with RAMP-3) on BHK570 cells (human, UniProt P30988 25-474); assay: cell-based or functional assay
T1 sequence (P30988 whole entry, looked up): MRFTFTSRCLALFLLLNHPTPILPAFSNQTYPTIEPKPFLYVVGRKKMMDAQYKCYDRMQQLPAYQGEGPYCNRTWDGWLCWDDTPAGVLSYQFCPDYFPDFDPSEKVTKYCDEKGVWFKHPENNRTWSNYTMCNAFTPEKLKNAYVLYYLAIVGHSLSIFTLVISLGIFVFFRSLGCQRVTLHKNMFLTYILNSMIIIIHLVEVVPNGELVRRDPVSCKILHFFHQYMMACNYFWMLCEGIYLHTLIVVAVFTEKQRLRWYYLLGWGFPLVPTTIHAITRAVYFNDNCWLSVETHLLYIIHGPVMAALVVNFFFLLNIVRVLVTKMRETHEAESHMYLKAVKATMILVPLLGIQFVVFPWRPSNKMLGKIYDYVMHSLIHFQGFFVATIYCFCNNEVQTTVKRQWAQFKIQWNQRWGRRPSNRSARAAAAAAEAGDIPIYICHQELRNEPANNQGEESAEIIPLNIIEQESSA
T1 sequence (O60896 whole entry, looked up): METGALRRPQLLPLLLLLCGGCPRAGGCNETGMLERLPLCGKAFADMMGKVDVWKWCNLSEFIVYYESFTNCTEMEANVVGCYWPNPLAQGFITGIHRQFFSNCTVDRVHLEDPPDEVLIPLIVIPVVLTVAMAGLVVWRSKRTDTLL

[2] = biological target: Amylin 3(a) receptor (human calcitonin receptor (CTa) coexpressed with RAMP-3) on BHK570 cells (human, UniProt P30988 25-474); assay: cell-based or functional assay; remark: listed apart in the source

EC50 (pM) in luciferase assay [1]: 50 pM
Binder: {4‑carboxy‑4‑(19-carboxy-nonadecanoylamino)butyryl}-KCNTATCALGRLSQELHRLQTYPRTNTGSNTY-NH2 (disulfide 2-7)

EC50 (pM) in luciferase assay [1]: 3 pM
B1: Amylin (1-8)-[Arg11,Arg18]sCT (9-27)-amylin (33-37) (peptide)
peptide: KCNTATCALGRLSQELHRLQTYPRTNTGSNTY
HELM: PEPTIDE1{K.C.N.T.A.T.C.A.L.G.R.L.S.Q.E.L.H.R.L.Q.T.Y.P.R.T.N.T.G.S.N.T.Y.[am]}$PEPTIDE1,PEPTIDE1,2:R3-7:R3$$$V2.0; N-terminus assumed
SMILES: CC(C)C[C@H](NC(=O)[C@H](C)NC(=O)[C@@H]1CSSC[C@H](NC(=O)[C@@H](N)CCCCN)C(=O)N[C@@H](CC(N)=O)C(=O)N[C@@H]([C@@H](C)O)C(=O)N[C@@H](C)C(=O)N[C@@H]([C@@H](C)O)C(=O)N1)C(=O)NCC(=O)N[C@@H](CCCNC(=N)N)C(=O)N[C@@H](CC(C)C)C(=O)N[C@@H](CO)C(=O)N[C@@H](CCC(N)=O)C(=O)N[C@@H](CCC(=O)O)C(=O)N[C@@H](CC(C)C)C(=O)N[C@@H](Cc1c[nH]cn1)C(=O)N[C@@H](CCCNC(=N)N)C(=O)N[C@@H](CC(C)C)C(=O)N[C@@H](CCC(N)=O)C(=O)N[C@H](C(=O)N[C@@H](Cc1ccc(O)cc1)C(=O)N1CCC[C@H]1C(=O)N[C@@H](CCCNC(=N)N)C(=O)N[C@H](C(=O)N[C@@H](CC(N)=O)C(=O)N[C@H](C(=O)NCC(=O)N[C@@H](CO)C(=O)N[C@@H](CC(N)=O)C(=O)N[C@H](C(=O)N[C@@H](Cc1ccc(O)cc1)C(N)=O)[C@@H](C)O)[C@@H](C)O)[C@@H](C)O)[C@@H](C)O

EC50 (pM) in luciferase assay [2]: 10 pM
B2: [His1]amylin (1-8)-[His11,His18,His24]sCT (9-27)-amylin (33-37) (peptide)
peptide: B1 peptide with K1H, R11H, R18H, R24H
HELM: PEPTIDE1{H.C.N.T.A.T.C.A.L.G.H.L.S.Q.E.L.H.H.L.Q.T.Y.P.H.T.N.T.G.S.N.T.Y.[am]}$PEPTIDE1,PEPTIDE1,2:R3-7:R3$$$V2.0; N-terminus assumed
SMILES: CC(C)C[C@H](NC(=O)[C@H](C)NC(=O)[C@@H]1CSSC[C@H](NC(=O)[C@@H](N)Cc2c[nH]cn2)C(=O)N[C@@H](CC(N)=O)C(=O)N[C@@H]([C@@H](C)O)C(=O)N[C@@H](C)C(=O)N[C@@H]([C@@H](C)O)C(=O)N1)C(=O)NCC(=O)N[C@@H](Cc1c[nH]cn1)C(=O)N[C@@H](CC(C)C)C(=O)N[C@@H](CO)C(=O)N[C@@H](CCC(N)=O)C(=O)N[C@@H](CCC(=O)O)C(=O)N[C@@H](CC(C)C)C(=O)N[C@@H](Cc1c[nH]cn1)C(=O)N[C@@H](Cc1c[nH]cn1)C(=O)N[C@@H](CC(C)C)C(=O)N[C@@H](CCC(N)=O)C(=O)N[C@H](C(=O)N[C@@H](Cc1ccc(O)cc1)C(=O)N1CCC[C@H]1C(=O)N[C@@H](Cc1c[nH]cn1)C(=O)N[C@H](C(=O)N[C@@H](CC(N)=O)C(=O)N[C@H](C(=O)NCC(=O)N[C@@H](CO)C(=O)N[C@@H](CC(N)=O)C(=O)N[C@H](C(=O)N[C@@H](Cc1ccc(O)cc1)C(N)=O)[C@@H](C)O)[C@@H](C)O)[C@@H](C)O)[C@@H](C)O
